Data published in patent publication US20180280504A1, “GLYCAN-INTERACTING COMPOUNDS AND METHODS OF USE” (SIAMAB THERAPEUTICS, INC., priority 2014, published 2018).
Where a chain is given by its changes, count along the chain named. Numbers in names are those of the source. Where “and” joins values, the source holds several entries; their conditions need not be identical. Identical values can stand only once. Like-named read-outs stand apart in the source and are kept apart here. Each block holds one molecule with its values, some of them ahead of it.

How the values were obtained:
[1] = Glycan array, AcSTn; format: binding; conditions: for Glycan Array AcSTn: summary table
Description: (§1) Optimized glycan arrays comprise 71 chemically synthesized and well-defined glycans, most of which comprise Neu5Ac and Neu5Gc glycan pairs.
(§2) 300 ml of epoxy blocking buffer is prepared by combining 15 ml of 2 M Tris buffer (pH 8) with 0.9 ml of 16.6 M ethanolamine and 284.1 ml of distilled water. The solution was brought to a final pH of 9.0 with HCl. The solution is filtered using a […] nitrocellulose membrane. The epoxy buffer solution as well as 1 L of distilled water are pre-warmed to 50° C. Glass slides are arranged in a slide holder and quickly submerged in a staining tub with the warmed epoxy blocking buffer. Slides are incubated in the epoxy blocking buffer for 1 hour at 50° C. with periodic shaking to deactivate epoxy binding sites. Next, slides are rinsed and blocked with PBS with 1% OVA at 25° C. for one hour. Serum samples with polyclonal antibodies (1:1000) or purified monoclonal antibodies (1 ug/mL), are diluted in PBS with 1% OVA and added to the glycan array for one hour at 25° C. After extensive washing, binding of antibodies are detected by incubating glycan microarray slides with Cy3-conjugated anti-mouse IgG (Jackson Immunoresearch, West Grove, Pa.) for one hour. Slides are then washed extensively, dried and scanned with a Genepix 4000B scanner (Laser at 100%; gain at 350; 10 μm pixels). Raw data from scanned images are extracted using the Genepix software and analysis of raw data is carried out.

[2] = Glycan array, GcSTn; format: binding; conditions: for Glycan Array GcSTn: summary table
Description: as §1, §2

[3] = Glycan array STn specificity and anti-STn antibody group assignment; format: binding; set-up: key to Group (anti-STn antibody group): Group 1: antibodies capable of binding AcSTn and GcSTn; Group 2: ability to bind STn as well as some related structures that include an O-linkage to serine or threonine; Group 3: antibodies capable of binding STn, but may also bind a broader set of related structures; Group 4: capable of binding to both AcSTn and GcSTn as well as the un-sialylated Tn antigen; conditions: for Group (anti-STn antibody group): assigned from flow cytometry and glycan array analysis; for Glycan Array STn Specificity: summary table
Description: as §2
Based on characterization data, anti-STn antibodies developed from Group 6 and Group 8 mice were categorized by anti-STn group number. In some cases, antibodies were assigned to Group 1. Group 1 antibodies according to the invention are antibodies capable of binding AcSTn and GcSTn. Such antibodies may have the ability to associate with a wider range of STn structures. The large oval in FIG. 1A indicates the portion of STn recognized by Group 1 antibodies. Antibodies were assigned to Group 2 based on their ability to bind STn as well as some related structures that include an O-linkage to serine or threonine. The large oval in FIG. 1B indicates the portion of STn recognized by Group 2 antibodies. In some cases, Group 2 antibodies may bind to glycans comprising a sialylated galactose residue. Some Group 2 antibodies preferably bind to structures with AcSTn over structures with GcSTn. Further anti-STn antibodies were assigned to Group 3. Group 3 antibodies are antibodies capable of binding STn, but may also bind a broader set of related structures. […] The large oval in FIG. 1C indicates the portion of STn recognized by Group 3 antibodies. Finally, some anti-STn antibodies were assigned to Group 4. Group 4 antibodies are capable of binding to both AcSTn and GcSTn as well as the un-sialylated Tn antigen, and therefore have broader specificity. The large oval in FIG. 1D indicates the portion of STn recognized by Group 4 antibodies. […] Also listed in the Table is the antibody Isotype for each antibody as determined by the IsoStrip mouse monoclonal antibody isotyping kit (Roche Diagnostics GmbH, Manheim, Germany).

[4] = system: ST6GalNAc 1 transfected MDA-MB-231 cells (MDA-STn+); test: Flow cytometry-based analysis of antibody binding, STn+ cells; set-up: species or system human; conditions: for EC50, flow cytometry binding to cell-associated STn: ST6GalNAc 1 transfected MDA-MB-231 cells, APC anti-mouse IgG
Description: Flow cytometry-based analysis is carried out to elucidate the curve-dose response for binding of antibodies to cell surface antigens. For these analyses, three cell lines are employed.
MDA-MB-231 cells are human breast cancer cells. They are grown in Earle's Minimum Essential Medium supplemented with 10% fetal calf serum (FCS), 100 μg/ml penicillin, 100 UI/ml streptomycin and 45 μg/ml gentamycin. MCF-7 cells are also human breast cancer cells and are grown under the same conditions as MDA-MB-231 cells. Stably transfected versions of MDA-MB-231 and MCF-7 cells (clone TAH3.P10 for MDA-MB-231 cells and clone A12.1 for MCF-7 cells) that over express GalNAc α2,6-sialyltransferase (ST6GalNAc 1,) are also cultured under the same conditions with the exception of an added 1 mg/ml of G418 to support cells expressing the transgene. ST6GalNAc 1 is an enzme capable of sialylating GalNAc. As a result of over expression, transfected cells express high levels of Neu5Ac-STn (see Julien, S. et al., Glycoconjugate journal. 2001. 18, 883-93; the contents of which are herein incorporated by reference in their entirety). E3 cells are murine breast cancer cells. They are cultured in Dulbecco's E4 medium with 10% FCS. Stably transfected versions of E3 cells expressing high levels of Neu5Gc-STn (E3-STn) are cultured with 600 μg/ml of G418 and 200 μg/ml hygromycin. During growth and maintenance of experimental cells, trypsin is not used for cell passaging.
For analysis, cells are harvested using StemPro Accutase (Life Technologies, Carlsbad, Calif.) and washed with PBS comprising 5% FBS before pelleting by light centrifugation. Cell numbers and viability are determined by trypan blue dye exclusion analysis and cell concentrations are adjusted to 5×10^6 cells/ml in PBS with 5% FBS. 50 μl of cells are added to each well of an assay plate. Cells are combined with 50 μl solutions of antibody being analyzed or control antibodies and incubated for 1 hour at 4° C. Cells are washed and pelleted twice with PBS with 5% FBS before being treated with 100 μl of PBS with 5% FBS comprising a 1:1,500 dilution of anti-mouse IgG (Southern Biotech, Birmingham, Ala.,) conjugated to allophycocyanin (APC). Cells are incubated for 30 min at 4° C. before washing and resuspending in 200 μl of propidium iodide (PI) diluted 1:1000 in PBS with 5% FBS. Treated cells are then subjects to flow cytometry analysis and 10,000 events are acquired for each sample.

[5] = STn expressed on MDA cells, based on mean fluorescence intensity of APC, #1, #2, #3 = lots, nM, read-out: EC50 value
[6] = summary table, unit not printed (same values in nM), read-out: Flow cytometry (EC50) MDA-STn+
[7] = glycan microarray, Cy3 anti-mouse IgG

EC50, flow cytometry binding to cell-associated STn [4]: 3.62 nM and 5.57 nM
EC50 [4, 5]: 5.57 nM
EC50 [4, 6]: 5.57 nM
B1: 10A5: anti-STn mouse monoclonal, IgG2c κ, from mouse #4406; VH SEQ ID NO: 6, VL SEQ ID NO: 7 (antibody, V domains shown)
VH: QVQLKESGPGLVAPSQSLSITCTVSGFSLTSYGVSWVRQPPGKGLEWLGVIWGDGSTNYHSSLISRLSISKDNSKSQVFLKLNSLQTDDTATYYCARAFVYWGQGTLVTVSA
VL: QIVLTQSPAIMSASPGEKVTMTCSASSSVSYIHWYQQKSGTSPKRWIYDTSKLASGVPARFSGSGSGTSYSLTISSMEAEDAATYYCQQWSSNPPMLTFGAGTKLELK
Glycan Array AcSTn [1]: 96%
Glycan Array GcSTn [2]: 1%
Group (anti-STn antibody group) [3]: Group 2
Glycan Array STn Specificity [3]: 97%

EC50, flow cytometry binding to cell-associated STn [4]: 1.41 nM
EC50, flow cytometry binding to cell-associated STn ([4]; listed as 2D4-1B4): 1.19 nM
EC50 ([4]; STn expressed on MDA cells, based on mean fluorescence intensity of APC, #1, #2, #3 = lots, nM, listed as 2D4#1, read-out: EC50 value): 2.23 nM
EC50 ([4]; STn expressed on MDA cells, based on mean fluorescence intensity of APC, #1, #2, #3 = lots, nM, listed as 2D4#2, read-out: EC50 value): 1.41 nM
EC50 [4, 6]: 1.41 nM
B2: 2D4: anti-STn mouse monoclonal, IgG2b κ, from mouse #4407; VH SEQ ID NO: 10, VL SEQ ID NO: 11 (antibody, V domains shown)
VH: B1 VH with K5Q, T30I, S35N, H60Q, S62A, S68I, A96T, R97K, A98G, V100A
VL: QIVLTQSPAIMSASPGEKVTMTCSASSSVSYMHWFQQKSGTSPKRWIYDTSKLASGVPARFSGSGSGTSYSLTISSMEAEDAATYYCQQWSSNLLTFGAGTKLELK
Glycan Array AcSTn [1]: 88%
Glycan Array GcSTn [2]: 1%
Group (anti-STn antibody group) [3]: Group 2
Glycan Array STn Specificity [3]: 89%

EC50, flow cytometry binding to cell-associated STn [4]: 7.52 nM
EC50, flow cytometry binding to cell-associated STn ([4]; listed as 8C11 Lot 111113): 7.28 nM
B3: 8C11: anti-STn mouse monoclonal, IgG2b κ, from mouse #4407; VH SEQ ID NO: 8, VL SEQ ID NO: 9 (antibody, V domains shown)
VH: B1 VH with S62A, S68I, A96T, R97K, A98G, V100T
VL: B2 VL with F35Y, Y48F
Glycan Array AcSTn [1]: 75%
Glycan Array GcSTn [2]: 9%
Group (anti-STn antibody group) [3]: Group 2
Glycan Array STn Specificity [3]: 84%

B4: 7G9: anti-STn mouse monoclonal, IgG2b κ, from mouse #4407; VH SEQ ID NO: 12, VL SEQ ID NO: 9 (antibody, V domains shown)
VH: B1 VH with S17N, S35N, S62A, S68I, D72E, D88N, A96T, R97K, A98G
VL: B2 VL with F35Y, Y48F
Glycan Array AcSTn [1]: 72%
Glycan Array GcSTn [2]: 7%
Group (anti-STn antibody group) [3]: Group 2
Glycan Array STn Specificity [3]: 79%
EC50, flow cytometry binding to cell-associated STn [4]: 6.91 nM
EC50, flow cytometry binding to cell-associated STn ([4]; listed as 7G9#2): 7.33 nM
EC50, flow cytometry binding to cell-associated STn ([4]; listed as 7G9#3): 5.15 nM
EC50 [4, 5]: 5.15 nM
EC50 [4, 6]: 5.15 nM

B5: S3F: 3F1 variable domains combined with IgG2a constant domains; heavy chain SEQ ID NO: 63, light chain SEQ ID NO: 64 (antibody)
heavy: QVQLQQSDAELVKPGASVKISCKASGYTFTDHAIHWVKQKPEQGLDWIGYISPGNGDIKYNEKFKDKVTLTADKSSSTACMHLNSLTSEDSAVYFCKRSLLALDYWGQGTTLTVSSAKTTAPSVYPLAPVCGDTTGSSVTLGCLVKGYFPEPVTLTWNSGSLSSGVHTFPAVLQSDLYTLSSSVTVTSSTWPSQSITCNVAHPASSTKVDKKIEPRGPTIKPCPPCKCPAPNLLGGPSVFIFPPKIKDVLMISLSPIVTCVVVDVSEDDPDVQISWFVNNVEVHTAQTQTHREDYNSTLRVVSALPIQHQDWMSGKEFKCKVNNKDLPAPIERTISKPKGSVRAPQVYVLPPPEEEMTKKQVTLTCMVTDFMPEDIYVEWTNNGKTELNYKNTEPVLDSDGSYFMYSKLRVEKKNWVERNSYSCSVVHEGLHNHHTTKSFSRTPGK
light: DIVMTQSHKFMSTSVGDRVSITCKASQDVGTNIAWYQQKPGRSPKVLIYSASTRHTGVPDRFTGSGSGTDFTLTISNVQSEDLTDYFCQQYSSFPLTFGVGTKLELKRADAAPTVSIFPPSSEQLTSGGASVVCFLNNFYPKDINVKWKIDGSERQNGVLNSWTDQDSKDSTYSMSSTLTLTKDEYERHNSYTCEATHKTSTSPIVKSFNRNEC
Glycan Array AcSTn [1]: 63%
Glycan Array GcSTn [2]: 31%
Glycan Array STn Specificity [3]: 94%
EC50, flow cytometry binding to cell-associated STn [4]: 2.051 nM and 2.13 nM and 1.94 nM
EC50 [4, 6]: 1.06 nM

EC50, flow cytometry binding to cell-associated STn [4]: 60.35 nM
EC50 [4, 6]: 354 nM
B6: 18C7: anti-STn mouse monoclonal, IgG2c κ, from mouse #4436; VH SEQ ID NO: 4, VL SEQ ID NO: 5 (antibody, V domains shown)
VH: QVTLKESGPGILQPSQTLSLTCSFSGFSLSTFGMGVGWIRQPSGKGLEWLAHIWWDDDKYYNPALKSRLTISKDTSKNQVFLKIANVDTADTATYYCARIAYYYGSERDYWGQGTTLTVSS
VL: QIVLTQSPAIMSASPGEKVTMTCSASSSISYMHWYHQKPGTSPKRWIYDTSKLASGVPARFSGSGSGTSYSLTISSMEAEDAATYYCHQRSSYTFGGGTKLEIKR
mean fluorescence intensity, AcSTn [1, 7]: about 9,000
Glycan Array AcSTn [1]: 60%
mean fluorescence intensity, GcSTn [2, 7]: about 3,500
Glycan Array GcSTn [2]: 40%
Group (anti-STn antibody group) [3]: Group 1
Glycan Array STn Specificity [3]: 100%
